What was measured:
Experiment in all cases: SPR, mAb captured, 37 C
[1] = target: T1, recombinant human LEPR extracellular domain expressed with a C-terminal myc-myc-hexahistidine tag (human, UniProt P48357 22-839)
T1 construct: Monomeric construct; also called hLEPR.MMH; hLEPR-MMH
Method: (§1) Equilibrium dissociation constants (KD values) for antigen binding to purified anti-LEPR monoclonal antibodies of the invention were determined using a real-time surface plasmon resonance biosensor using a Biacore 4000 instrument. All binding studies were performed in running buffer containing 10 mM HEPES, 150 mM NaCl, 3 mM EDTA, and 0.05% v/v Surfactant Tween-20, pH 7.4 (HBS-ET running buffer) at 25° C. and 37° C. The Biacore sensor surface was first derivatized by amine coupling with a monoclonal mouse anti-human Fc antibody (GE, # BR-1008-39) to the capture anti-LEPR monoclonal antibodies. The LEPR reagents tested for binding to the anti-LEPR monoclonal antibodies included recombinant human LEPR extracellular domain expressed with a C-terminal myc-myc-hexahistidine tag (hLEPR.MMH; SEQ ID NO:90), recombinant cynomolgus monkey LEPR extracellular domain expressed with a C-terminal myc-myc-hexahistidine tag (mfLEPR.MMH; SEQ ID NO:93), recombinant mouse LEPR extracellular domain expressed with a C-terminal myc-myc-hexahistidine tag (mLEPR.MMH; SEQ ID NO:94), recombinant rat LEPR extracellular domain expressed with a C-terminal myc-myc-hexahistidine tag (rLEPR.MMH; SEQ ID NO:95), and recombinant human LEPR extracellular domain expressed with a C-terminal mouse IgG2a Fc tag (hLEPR.mFc; SEQ ID NO:91). LEPR constructs that include MMH tags are monomeric LEPR constructs, and LEPR constructs including an mFc tag are dimeric LEPR constructs. […] The dissociation of monoclonal antibody bound LEPR reagent was monitored for 10 minutes in HBS-ET running buffer. Kinetic association (10 and dissociation (10 rate constants were determined by fitting the real-time binding sensorgrams to a 1:1 binding model with mass transport limitation using Scrubber 2.0c curve-fitting software. Binding dissociation equilibrium constants (KD) and dissociative half-lives (t½) were calculated from the kinetic rate constants as: […]

[2] = target: T2, recombinant cynomolgus monkey LEPR extracellular domain expressed with a C-terminal myc-myc-hexahistidine tag (cynomolgus monkey, UniProt Q9MYL0 22-837 (rhesus entry))
T2 construct: Monomeric construct; also called mfLEPR.MMH; mfLEPR-MMH
Method: as §1

[3] = target: T3, recombinant human LEPR extracellular domain expressed with a C-terminal mouse IgG2a Fc tag (human)
T3 construct: Dimeric construct; also called hLEPR.mFc; hLEPR-mFc
T3 chain: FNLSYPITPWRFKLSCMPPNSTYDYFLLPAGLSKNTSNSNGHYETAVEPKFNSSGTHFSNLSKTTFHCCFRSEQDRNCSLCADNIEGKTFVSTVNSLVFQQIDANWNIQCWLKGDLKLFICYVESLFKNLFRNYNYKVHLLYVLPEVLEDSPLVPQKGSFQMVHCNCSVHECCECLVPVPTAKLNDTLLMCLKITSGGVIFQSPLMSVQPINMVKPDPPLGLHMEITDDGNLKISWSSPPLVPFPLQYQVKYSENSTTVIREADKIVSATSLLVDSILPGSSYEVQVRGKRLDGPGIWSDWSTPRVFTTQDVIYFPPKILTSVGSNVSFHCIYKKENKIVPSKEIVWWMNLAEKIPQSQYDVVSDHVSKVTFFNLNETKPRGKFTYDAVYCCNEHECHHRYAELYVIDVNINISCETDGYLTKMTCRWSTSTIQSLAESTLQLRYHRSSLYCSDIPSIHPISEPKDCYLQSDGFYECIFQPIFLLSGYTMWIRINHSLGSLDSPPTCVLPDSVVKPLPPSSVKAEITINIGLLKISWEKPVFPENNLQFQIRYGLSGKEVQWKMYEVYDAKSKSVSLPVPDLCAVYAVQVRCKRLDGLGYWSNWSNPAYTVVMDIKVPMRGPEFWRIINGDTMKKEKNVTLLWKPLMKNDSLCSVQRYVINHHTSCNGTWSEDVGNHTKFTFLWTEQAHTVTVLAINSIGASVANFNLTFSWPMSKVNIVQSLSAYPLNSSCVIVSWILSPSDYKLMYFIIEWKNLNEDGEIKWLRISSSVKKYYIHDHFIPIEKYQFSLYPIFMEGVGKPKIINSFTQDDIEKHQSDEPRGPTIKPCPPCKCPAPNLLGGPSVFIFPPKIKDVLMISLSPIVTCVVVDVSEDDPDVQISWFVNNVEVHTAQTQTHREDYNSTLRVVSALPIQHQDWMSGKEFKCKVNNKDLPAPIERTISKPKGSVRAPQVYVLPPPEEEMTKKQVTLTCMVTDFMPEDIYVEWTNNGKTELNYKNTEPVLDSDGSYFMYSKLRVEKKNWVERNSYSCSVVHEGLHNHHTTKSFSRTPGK
Method: as §1

[4] = target: T4, recombinant mouse LEPR extracellular domain expressed with a C-terminal myc-myc-hexahistidine tag (mouse, UniProt P48356 22-839)
T4 construct: Monomeric construct; also called mLEPR.MMH; mLEPR-MMH
T4 sequence (P48356 other isoform, or with tags, fused parts or gaps): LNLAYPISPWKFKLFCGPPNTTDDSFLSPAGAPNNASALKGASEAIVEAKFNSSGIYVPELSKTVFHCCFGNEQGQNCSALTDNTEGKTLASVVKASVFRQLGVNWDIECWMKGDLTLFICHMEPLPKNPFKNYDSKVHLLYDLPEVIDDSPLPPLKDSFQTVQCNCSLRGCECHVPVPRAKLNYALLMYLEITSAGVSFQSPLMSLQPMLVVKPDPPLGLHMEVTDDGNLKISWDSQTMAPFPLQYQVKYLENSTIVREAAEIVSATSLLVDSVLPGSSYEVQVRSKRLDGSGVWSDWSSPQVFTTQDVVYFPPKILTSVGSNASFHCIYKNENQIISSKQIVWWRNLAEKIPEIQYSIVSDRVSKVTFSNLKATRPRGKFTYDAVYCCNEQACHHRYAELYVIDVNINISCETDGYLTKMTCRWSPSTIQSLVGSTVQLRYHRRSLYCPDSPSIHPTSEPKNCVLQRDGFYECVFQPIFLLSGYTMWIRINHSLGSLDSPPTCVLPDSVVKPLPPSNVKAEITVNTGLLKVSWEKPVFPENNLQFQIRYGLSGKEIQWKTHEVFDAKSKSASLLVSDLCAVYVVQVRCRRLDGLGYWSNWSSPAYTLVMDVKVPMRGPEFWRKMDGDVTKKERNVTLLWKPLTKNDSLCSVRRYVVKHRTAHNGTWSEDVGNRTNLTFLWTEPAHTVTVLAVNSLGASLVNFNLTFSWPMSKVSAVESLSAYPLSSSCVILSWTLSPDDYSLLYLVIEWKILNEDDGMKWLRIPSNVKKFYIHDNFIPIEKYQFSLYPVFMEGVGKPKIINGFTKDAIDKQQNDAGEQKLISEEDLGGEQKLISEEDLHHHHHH
Method: as §1

[5] = target: T5, recombinant rat LEPR extracellular domain expressed with a C-terminal myc-myc-hexahistidine tag (rat, UniProt Q62959 22-839)
T5 construct: Monomeric construct; also called rLEPR.MMH; rLEPR-MMH
T5 sequence (Q62959 other isoform, or with tags, fused parts or gaps): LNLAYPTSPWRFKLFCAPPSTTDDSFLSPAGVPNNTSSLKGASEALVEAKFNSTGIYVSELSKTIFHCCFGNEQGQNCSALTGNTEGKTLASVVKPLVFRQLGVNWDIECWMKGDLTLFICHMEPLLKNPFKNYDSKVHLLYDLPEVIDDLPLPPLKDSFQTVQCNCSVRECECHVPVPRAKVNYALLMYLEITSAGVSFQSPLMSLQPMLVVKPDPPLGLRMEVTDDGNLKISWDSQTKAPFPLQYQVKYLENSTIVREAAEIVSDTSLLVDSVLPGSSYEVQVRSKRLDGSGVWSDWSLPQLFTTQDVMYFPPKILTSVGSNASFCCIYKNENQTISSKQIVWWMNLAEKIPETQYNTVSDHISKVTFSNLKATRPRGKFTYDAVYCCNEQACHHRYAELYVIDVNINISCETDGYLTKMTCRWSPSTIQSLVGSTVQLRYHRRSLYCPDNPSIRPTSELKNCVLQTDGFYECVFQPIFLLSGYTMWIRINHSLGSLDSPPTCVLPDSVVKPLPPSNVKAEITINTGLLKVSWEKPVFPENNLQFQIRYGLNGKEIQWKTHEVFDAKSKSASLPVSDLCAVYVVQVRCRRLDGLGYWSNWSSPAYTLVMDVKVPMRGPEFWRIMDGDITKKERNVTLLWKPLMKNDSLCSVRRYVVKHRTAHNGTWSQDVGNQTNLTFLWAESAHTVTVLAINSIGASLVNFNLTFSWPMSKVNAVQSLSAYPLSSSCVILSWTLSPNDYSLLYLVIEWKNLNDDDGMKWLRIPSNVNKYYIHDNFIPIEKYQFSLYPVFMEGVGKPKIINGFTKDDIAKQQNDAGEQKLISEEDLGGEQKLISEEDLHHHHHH
Method: as §1

Binder | 100 nM hLEPR-MMH Bound (RU) [1] [RU] | Kd [1] [nM] | koff [1] [s⁻¹] | kon [1] [M⁻¹ s⁻¹] | t½ [1] [min] | 100 nM mfLEPR-MMH Bound (RU) [2] [RU] | Kd [2] [nM] | koff [2] [s⁻¹] | kon [2] [M⁻¹ s⁻¹] | t½ [2] [min] | 100 nM hLEPR-mFc Bound (RU) [3] [RU] | Kd [3] [nM] | koff [3] [s⁻¹] | kon [3] [M⁻¹ s⁻¹] | t½ [3] [min] | 100 nM mLEPR-MMH Bound (RU) [4] [RU] | 100 nM rLEPR-MMH Bound (RU) [5] [RU] | Kd [5] [nM] | koff [5] [s⁻¹] | kon [5] [M⁻¹ s⁻¹] | further results
H4H18440P2 (antibody, human IgG4, V domains shown, H4H prefix: human IgG4 Fc) VH: QVQLVESGGGMVKPGGSLRLSCAASGFTFSDYYMSWIRQAPGKGLEWISHISITGSTIYYADSVKGRFTISRDNAKNSLYLEMNRLRDEDTAVYYCTRDEPDIVLVRYGMDVWGQGTTVTVSS VL: not shown | 95 | 27.3 | 0.00173 | 63400 | 7 | 66 | 101 | 0.00724 | 71500 | 1.6 | 181 | 0.527 | 0.000112 | 212000 | 103 | -1 | 0 | – | – | – | –
H4H18464P2 (antibody, human IgG4, V domains shown, H4H prefix: human IgG4 Fc) VH: QVQLVQSGPEVKKPGASVKVSCKGSGYTFSWYGISWIRQAPGHGLEWMGWISASSGNTRFAQKVQGRLTMTTDTSTSTAYMELRSLRSDDTAVYYCARTGTRPFDYWGQGTLVTVSS VL: not shown | 68 | 20.5 | 0.00315 | 154000 | 3.7 | 13 | 215 | 0.00841 | 39200 | 1.4 | 105 | 1.28 | 0.000517 | 404000 | 22 | 1 | 1 | – | – | – | –
H4H18457P2 (antibody, human IgG4, V domains shown, H4H prefix: human IgG4 Fc) VH: EVQLVESGGSVVRPGESLRLSCAASGFTFDDYGMSWVRQAPGKGLEWVSGISWNGGITVYADSVKGRFTVSRDNAKNSLYLQMNSLRAEDTALYHCARARYGGADYWGQGTLVTVSS VL: not shown | 108 | 24.8 | 0.00855 | 345000 | 1.4 | 117 | 30 | 0.0104 | 347000 | 1.1 | 166 | 1.27 | 0.000704 | 556000 | 16 | -1 | 16 | 580 | 0.0175 | 30200 | t½ [5]: 0.7 min
H4H17322P2 (antibody, human IgG4, V domains shown, H4H prefix: human IgG4 Fc) VH: QLQLQESGPGLVKPSETLSLTCTVSGASISSSRFYGGWIRQPPGKGLEWIGDIYYSGNTYYNPSLQSRVTISVDTSKNQFSLKLSSVTAADTAVYYCARHLMITFGGLIVEGFDIWGQGTMVTVSS VL: not shown | 99 | 11.7 | 0.000812 | 69500 | 14 | 142 | 7.72 | 0.0011 | 143000 | 10 | 105 | 3.31 | 0.00044 | 133000 | 26 | -1 | 9 | 352 | 0.0328 | 93200 | t½ [5]: 0.4 min
H4H18437P2 (antibody, human IgG4, V domains shown, H4H prefix: human IgG4 Fc) VH: QVQLVESGGGVVQPGRSLRLSCAASGFTFSSYGIHWVRQAPGKGLEWVAVISYDGNNKYYADSVKGRFTISRDNSKNTLYLQMNSLRAEDTAVYYCAKDLFLEWLFHGMGVWGQGTTVTVSS VL: not shown | 55 | 77.6 | 0.00884 | 114000 | 1.3 | 58 | 147 | 0.0127 | 86900 | 0.9 | 88 | 4.3 | 0.000556 | 129000 | 21 | 6 | 10 | 629 | 0.0193 | 30700 | Kd [4]: 1160 nM; koff [4]: 0.0133 s⁻¹; kon [4]: 11500 M⁻¹ s⁻¹; t½ [4]: 0.9 min; t½ [5]: 0.6 min
H4H18462P2 (antibody, human IgG4, V domains shown, H4H prefix: human IgG4 Fc) VH: EVQLVESGGDLVQPGRSLRLSCAASGFTFSSFAMSWVRQAPGRGLEWVSSLSDSGDNTYYADSVKGRFTISRDNSKNTLYLQMNNLRAEDTAVYYCAKDLFSGWLFHGFDVWGQGTMVTVSS VL: not shown | 31 | 248 | 0.0114 | 45800 | 1 | 28 | 261 | 0.0337 | 129000 | 0.3 | 84 | 4.26 | 0.000543 | 128000 | 21 | – | – | – | – | – | –

Reference: patent US20200123264A1 (Regeneron, published 2020)
